Assay results: US20190263934A1 (published 2019)

Biological target: T1, Ab3 WT recombinant Fc fragment (UniProt P01857-1 104-330 = IgG part, limits assumed)
T1 construct: domain: Fc fragment; Ab3 is an Fc fragment
Experiment: Biacore SPR, pH 6.0
Method: With the biotin CAPture kit, the CAPture reagent was captured on the CAP chip surface to a binding RU of >2,000 RU, followed by 0.1 μg mL⁻¹ FcRn in the appropriate channels for 24 s at 30 uL min⁻¹ to a final binding RU of ˜2 RU. The running buffer for the FcRn binding kinetics experiments was PBS with 0.05% Surfactant P-20 (PBS-P+, GE Healthcare) at pH 6.0 or 7.4. A concentration series of a 4-fold serial dilution from 1000 nM antibody was performed in quadruplicate for each variant, including a 0 nM control. Kinetic measurements were obtained for association and dissociation times of 180 and 300 sec, respectively at a flow rate of 10 μL min⁻¹. The C1 and CAP sensor chips were regenerated with 10 mM sodium tetraborate, 1 M NaCl pH 8.5 (GE Healthcare) for 30 sec at 50 μL min⁻¹ or 6 M guanidine hydrochloride, 250 mM sodium hydroxide (GE Healthcare) for 120 s at 50 uL min¹, respectively, followed by an additional 60-90 sec stabilization step in PBS-P+pH 6.0. […]
Kinetic parameters for the concentration series at pH 6.0 were fit to a bivalent model using the Biacore T200 Evaluation Software due to avidity effects. […] The apparent binding affinity was calculated from the first on and off-rates from the bivalent model. The residual binding at pH 7.4 was measured using 1000 nM of each antibody in triplicate at the same time for response comparison.

Kd: 61 nM
B1: mouse FcRn (receptor)
chain: SETRPPLMYHLTAVSNPSTGLPSFWATGWLGPQQYLTYNSLRQEADPCGAWMWENQVSWYWEKETTDLKSKEQLFLEALKTLEKILNGTYTLQGLLGCELASDNSSVPTAVFALNGEEFMKFNPRIGNWTGEWPETEIVANLWMKQPDAARKESEFLLNSCPERLLGHLERGRRNLEWKEPPSMRLKARPGNSGSSVLTCAAFSFYPPELKFRFLRNGLASGSGNCSTGPNGDGSFHAWSLLEVKRGDEHHYQCQVEHEGLAQPLTVDLDSSARSS
b2m: IQKTPQIQVYSRHPPENGKPNILNCYVTQFHPPHIEIQMLKNGKKIPKVEMSDMSFSKDWSFYILAHTEFTPTETDTYACRVKHASMAEPKTVYWDRDM
modifications: biotinylated
notes: only 'biotinylated ... mouse FcRn' is told; also called mFcRn
